Assay results reported in patent US12371675B2, “Process and microorganism for synthesis of adipic acid from carboxylic acids” (THE GOVERNING COUNCIL OF THE UNIVERSITY OF TORONTO, priority 2015, dated 2025).

Legend:
[1] = substrate: O=C(O)/C=C/c1ccccc1; assay: Kinetics of purified EREDCA, NADH oxidation at 340 nm, anaerobic; type: biochemical, Clostridium acetobutylicum DSM 1731; conditions: other: trans-cinnamic acid, pH 7.0, 30° C., anaerobic
Method: (§1) The C═C reducing activity of EREDs was examined. Enzyme activity of purified EREDs was measured spectrophotometrically in 96-well plates by following incubation for 3-5 min at 30° C. in the anaerobic chamber as described in M. Buhler, H. Simon, Hoppe-Seyler's Zeitschrift fur Physiologische Chemie 1982, 363, 609-625. Buffers and reagents were degassed and sparged with Ar. Reaction mixture contained potassium phosphate (100 mM and pH 7.0), NADH (0.5 mM), indicated substrates, and proteins (0.1-50 μg) in a final volume of 200 μL. Enzyme reactions were monitored by following the decrease in absorbance at 340 nm (ε340 nm=6,220/M·cm) due to oxidation of NADH to NAD+.
(§2) For in vitro biochemical characterization, enzyme activities of purified EREDs were measured with 2-hexenedioic acid, cis-cis-muconic acid, trans-trans muconic acid, trans-cinnamic acid, trans-2-methyl-2-butenoic acid, trans-2-butenoic acid, acrolein, 2-cyclohexen-1-one, and 3-methyl-2-cyclohexenone. […] [Feng, J. et al. Discovery and Characterization of BlsE, a Radical S-Adenosyl-L-methionine Decarboxylase Involved in the Blasticidin S Biosynthetic Pathway. PLoS ONE 8 (2013)].
(§3) To increase the dissolved substrate concentration, 2-hexenedioic acid was dissolved in a reaction mixture containing […] (final concentration) isopropanol, and kinetic constants of EREDBC and EREDCA were determined.

[2] = substrate: O=C(O)C=CCCC(=O)O; assay: as above; type: biochemical, Clostridium acetobutylicum DSM 1731; conditions: other: 2-hexenedioic acid in 0.25 mM isopropanol, 2.5 to 35 mM, sigmoidal kinetics, pH 7.0, 30.0 °C
Method: as §1, §2, §3

B1: Clostridium acetobutylicum DSM 1731 2-enoate reductase EREDCA, SEQ ID NO: 2 (Clostridium acetobutylicum ATCC 824) (protein)
chain: MNKYKKLFEPIKIGKCEIKNRFALAPMGPLGLADSEGGFNQRGIDYYTERAKGGTGLIITGVTFVDNEVEEHGMPNCPCPTHNPVQFVRTGREMTERIHAYNSKVFLQMSGGFGRVTIPTNLGEFPPVAPSPIQHRWLDKTCRELTVDEIKSIVKKFGEGAFNAKRAGFDGVQIHAVHEGYLIDQFAISLFNHRTDEYGGSLENRLRFAREIVEEIKNRCGEDFPVTLRYSPKSFIKDLRDGALPGEEFVEKGRDLDEGVEAAKLLVSYGYDALDTDVGSYDSWWWSHPPMYQEKGLYRKYAKLMKDTVDVPVICAGRMDDPDMALEAVENGTCDVISLGRPLLADPDYVNKLRSNKCKSIRPCISCQEGCMGRVQHYSMLNCAVNPQACKERANSLTPIIKSKKVLIVGGGVAGCEAARVLALRGHEPVLYEKSNRLGGNLIPGGAPSFKEDDIALADWYTNTLKELNVEVNLNSEVTKEQILNSKFDTVIVATGSTPKVFPLGDDEKVFTAAEVLLGQKDPGETTVVVGGGLVGCELALDLAKKGKKVTIVEALNKILALNGPLCSANSEMLQKLIPFNGIDVKANSKVKGYKNGLLKMETENGIEELPCDSVILSVGYKEENSLYKELEFEIPEIYLLGDARKVSNIMYGIWDAFEVANHI
For B1, which Km [1] is on record?
Its Km is 0.17 mM.

And the kcat [1]?
Its kcat is 5.2 s⁻¹.

And the Km [2]?
Its Km is 20.47 mM.
